Here are results for 8 sequences from the Immune Epitope Database (IEDB).

Assay [1] concerns the target HLA-A*02:12. As to the kind of experiment: IEDB peptide-MHC binding, purified MHC/competitive/fluorescence; filed as Kd, often an IC50 or EC50 that approximates it; ≥ and ≤ were set here for values at or beyond the usual limits of such assays. The conditions noted are these: source organism: Vibrio vulnificus YJ016.
Assay [2] addresses HLA-B*18:01. Described as above. The following applies: source organism: Vibrio vulnificus YJ016.
Assay [3] has as its target HLA-A*24:03. Described as above. The conditions noted are these: source organism: Vibrio vulnificus YJ016.
In assay [4] the target is HLA-A*02:03. The assay is described as above. The following applies: source organism: Vibrio vulnificus YJ016.
The target in assay [5] is HLA-B*46:01. The assay is described as above. The following applies: source organism: Vibrio vulnificus YJ016.
Assay [6] deals with HLA-A*29:02. The description is as above. The conditions noted are these: source organism: Vibrio vulnificus YJ016.
In assay [7] the target is HLA-B*39:01. The assay is described as above. The following applies: source organism: Vibrio vulnificus YJ016.
The target in assay [8] is HLA-A*02:19. The assay is described as above. The conditions noted are these: source organism: Vibrio vulnificus YJ016.
For assay [9], the target named is HLA-A*02:01. Described as above. The following applies: source organism: Vibrio vulnificus YJ016.
Assay [10] concerns the target HLA-A*23:01. The assay is described as above. The following applies: source organism: Vibrio vulnificus YJ016.
Assay [11] deals with HLA-A*02:11. The assay is described as above. The conditions noted are these: source organism: Vibrio vulnificus YJ016.
The target in assay [12] is HLA-B*27:03. Described as above. The conditions noted are these: source organism: Vibrio vulnificus YJ016.
In assay [13] the target is HLA-A*69:01. The assay is described as above. The conditions noted are these: source organism: Vibrio vulnificus YJ016.
In assay [14] the target is HLA-A*03:01. The description is as above. The conditions noted are these: source organism: Vibrio vulnificus YJ016.
Assay [15] concerns the target HLA-A*02:16. The assay is described as above. The following applies: source organism: Vibrio vulnificus YJ016.
The target of assay [16] is HLA-B*48:01. Described as above.
Assay [17] deals with HLA-A*24:03. Nature of the assay: IEDB peptide-MHC binding, purified MHC/direct/fluorescence; filed as Kd, often an IC50 or EC50 that approximates it; ≥ and ≤ were set here for values at or beyond the usual limits of such assays.
Assay [18] addresses HLA-C*04:01. The description is as above.
Assay [19] addresses HLA-B*51:01. The assay is described as above.
Assay [20] deals with HLA-A*02:12. The assay is described as above.
The target of assay [21] is HLA-B*18:01. Described as above.
For assay [22], the target named is HLA-A*02:03. The assay is described as above.
Assay [23] concerns the target HLA-B*46:01. Described as above.
Assay [24] has as its target HLA-B*57:01. The description is as above.
For assay [25], the target named is HLA-A*26:01. The assay is described as above.
Assay [26] has as its target HLA-A*02:19. Described as above.
Assay [27] addresses HLA-A*02:01. Described as above.
In assay [28] the target is HLA-B*27:03. The assay is described as above.
The target of assay [29] is HLA-B*15:01. The assay is described as above.
Assay [30] has as its target HLA-A*68:02. The description is as above.
Assay [31] addresses HLA-A*03:01. The assay is described as above.
Assay [32] deals with HLA-A*02:16. Described as above.
Assay [33] deals with HLA-B*15:17. The description is as above.
Assay [34] addresses HLA-A*29:02. Described as above. The conditions noted are these: source organism: Brucella suis 1330.
The target in assay [35] is HLA-A*23:01. Described as above. The following applies: source organism: Brucella suis 1330.
The target in assay [36] is HLA-A*69:01. The assay is described as above.
The target in assay [37] is HLA-B*07:02. The description is as above. The following applies: source organism: Camelpox virus M-96.
Assay [38] concerns the target HLA-B*39:01. The assay is described as above. The conditions noted are these: source organism: Camelpox virus M-96.
Assay [39] concerns the target HLA-A*01:01. The description is as above. The conditions noted are these: source organism: Camelpox virus M-96.
Assay [40] deals with HLA-B*58:01. Described as above. The following applies: source organism: Camelpox virus M-96.
For assay [41], the target named is HLA-B*27:05. The description is as above. The conditions noted are these: source organism: Camelpox virus M-96.
Assay [42] concerns the target HLA-B*40:01. Nature of the assay: IEDB peptide-MHC binding, purified MHC/competitive/fluorescence; filed as Kd, often an IC50 or EC50 that approximates it; ≥ and ≤ were set here for values at or beyond the usual limits of such assays. The conditions noted are these: source organism: Vaccinia virus L-IPV.
Assay [43] addresses HLA-B*35:01. The assay is described as above. The following applies: source organism: Vaccinia virus L-IPV.
Where [44] appears, read: source organism: Vibrio cholerae V52.
The mark [45] stands for this setting: source organism: Brucella suis 1330.
Setting [46] is: source organism: Camelpox virus M-96.

The term Kd denotes the equilibrium constant for the complex coming apart. The low end stands for tighter binding, the high end for weaker binding.

Bounds are passed on as bounds.

For HTSALSLGY, the Kd is at least 20 µM in assay [1]; at least 20 µM in assay [2]; at least 20 µM in assay [3]; at least 20 µM in assay [4]; at least 20 µM in assay [5]; at most 0.0001 µM in assay [6]. The Kd in assay [7], in [8], in assay [9], in assay [10], in [11] and in [12] was at least 20 µM each time. Also, the Kd is at least 20 µM in [13], 0.0179 µM in [14] and at least 20 µM in [15].

Consider KRAAAGIMK, for which the Kd in [16] (source organism: Dengue virus 2 Thailand/NGS-C/1944) is at least 20 µM.

As for LFPELDCFF, the values for the Kd in [17] (source organism: Orthohantavirus dobravaense) and in [18] (source organism: Kurkino virus) were 0.011 µM and at least 20 µM, respectively.

For the sequence LPYPVLLKI, the Kd in assay [19] (setting [44]) was 0.054 µM; in assay [20] (setting [44]), at least 20 µM; in assay [21] (setting [44]), at least 20 µM; in assay [22] (setting [44]), at least 20 µM; in assay [23] (setting [44]), at least 20 µM; in assay [24] (setting [44]), at least 20 µM. For the same sequence, the Kd in assay [25] (setting [44]), in assay [26] (setting [44]), in [27] (setting [44]), in assay [28] (setting [44]), in assay [29] (setting [44]) and in [30] (setting [44]) was at least 20 µM throughout. The Kd in assay [31] (setting [44]) and in [32] (setting [44]) was at least 20 µM in each case.

Regarding MHCDFAFWV, the Kd in [19] (setting [45]), in [20] (setting [45]), in assay [21] (setting [45]), in assay [17] (setting [45]), in assay [33] (setting [45]) and in assay [22] (setting [45]) was at least 20 µM each time. Also, the Kd in [23] (setting [45]), in assay [34], in assay [24] (setting [45]), in assay [25] (setting [45]), in [26] (setting [45]) and in assay [27] (setting [45]) was at least 20 µM throughout. Moreover, the Kd in assay [35], in assay [28] (setting [45]), in assay [36] (setting [45]), in assay [29] (setting [45]), in [30] (setting [45]) and in assay [31] (setting [45]) was at least 20 µM each time. In addition, the Kd in [32] (setting [45]) was at least 20 µM.

As to MYMALIAAF, the Kd in [18] (source organism: Yellow fever virus) was at least 20 µM.

With RRLRTLVLA, the Kd in [16] (source organism: Tick-borne encephalitis virus) was at least 20 µM.

As for SHEQGDIAL, the Kd is at least 20 µM in assay [21] (setting [46]); at least 20 µM in assay [37]; at least 20 µM in assay [33] (setting [46]); 0.0925 µM in assay [38]; at least 20 µM in [24] (setting [46]); at least 20 µM in [39]. For the same sequence, the Kd in assay [27] (setting [46]), in [40], in [36] (setting [46]), in [29] (setting [46]), in assay [30] (setting [46]) and in assay [41] was at least 20 µM each time. Moreover, the Kd was at least 20 µM in assay [16] (source organism: Vaccinia virus L-IPV), at least 20 µM in [42] and 2.3 µM in assay [43].
